Assay results taken from patent US20120121583A1 (Genentech, published 2012).

Tests used:
[1] = target: T1, Human recombinant soluble TWEAK (human, UniProt O43508 99-249); assay: cell-based or functional assay
T1 sequence: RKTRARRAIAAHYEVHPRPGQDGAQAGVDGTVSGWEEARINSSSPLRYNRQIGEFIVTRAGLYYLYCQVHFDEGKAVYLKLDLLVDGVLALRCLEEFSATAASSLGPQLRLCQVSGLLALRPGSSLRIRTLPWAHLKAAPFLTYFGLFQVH

[2] = target: T2, human Flag-tagged soluble TWEAK (amino acids 106-249) (human, UniProt O43508 106-249); assay: competition ELISA: antibody pre-incubated with human Flag-TWEAK 2.5 ng/ml, binding to coated human Fn14:Fc
T2 construct: N-terminal placement here is only an order of listing; not shown: Flag tag
T2 sequence: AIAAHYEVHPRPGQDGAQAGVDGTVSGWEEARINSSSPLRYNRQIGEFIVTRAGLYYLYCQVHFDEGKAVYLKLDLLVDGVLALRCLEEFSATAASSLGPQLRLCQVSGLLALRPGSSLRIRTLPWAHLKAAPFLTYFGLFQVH
Protocol: (§1) 96-well Maxisorp® plates (Nunc) were coated with 100 μl 1 μg/ml human Fn14:Fc (extracellular domain of human Fn14 (amino acids 1-75) fused to Fc portion of human IgG1) in PBS per well for 1.5 h at room temperature and blocked with a solution of 5% FBS in PBS for 30 minutes at room temperature under shaking. […] Wells were filled with 100 μl of anti-FLAG-HRP detection antibody, diluted 1:5000 in blocking buffer, and incubated for 1 h at room temperature. After four more wash steps, the signal was developed by addition of 100 μl 3,3,5,5-Tetramethylbenzidine (TMB) solution for approximately ten minutes. The reaction was stopped by adding 100 μl of 1 N HCl, and absorbance measured at 450 nm (reference wavelength 620 nm).

[3] = target: T1, Human recombinant soluble TWEAK; assay: cell-based or functional assay; remark: listed apart in the source
[4] = target: Biotinylated murine soluble TWEAK (amino acids 81-225 of SEQ ID NO: 61) (murine) (UniProt O54907); assay: Biacore SPR, biotinylated murine soluble TWEAK on SA sensor, antibody as analyte, 25 C
[5] = target: Biotinylated murine soluble TWEAK (amino acids 81-225 of SEQ ID NO: 61) (murine) (UniProt O54907); assay: Biacore SPR, biotinylated murine soluble TWEAK on SA sensor, antibody as analyte, 37 C
[6] = target: T3, Biotinylated human soluble TWEAK (amino acids 99-249 of SEQ ID NO: 60) (human, UniProt O43508 99-249, biotinylated (sites not given)); assay: Biacore SPR, biotinylated human soluble TWEAK on SA sensor, antibody as analyte, 25 C
T3 construct: Immobilised on the streptavidin sensor in the Biacore half-life assay; also called Human TWEAK; soluble human TWEAK
T3 sequence: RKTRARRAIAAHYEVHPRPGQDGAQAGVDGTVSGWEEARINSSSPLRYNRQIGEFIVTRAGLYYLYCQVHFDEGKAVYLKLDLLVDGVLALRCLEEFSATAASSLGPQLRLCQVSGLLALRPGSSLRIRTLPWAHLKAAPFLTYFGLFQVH
Protocol: A Biacore 2000 instrument was used with a Biacore streptavidin coated sensor mounted into the system. The system buffer HBS-ET (10 mM HEPES pH 7.4, 150 mM NaCl, 1 mM EDTA, 0.05% Tween® 20) was used at a flow rate of 100 μl/min. The sample buffer was the system buffer. Biotinylated human soluble TWEAK (amino acids 99-249 of SEQ ID NO: 60) and biotinylated murine soluble TWEAK (amino acids 81-225 of SEQ ID NO: 61) was immobilized on different flow cells on the SA sensor at 150 RU each. The flow cell FC1 was used as a blank reference cell. Each antibody was injected into the system as an analyte at 100 nM at 100 μl/min for 2 min association time. The dissociation of the immune complexes were monitored for 5 min. The sensor surface was washed with HBS-ET for 10 seconds and regenerated using 2×2 minutes injections with 10 mM glycine pH 2.25. This procedure was done at 25° C. The kinetically rate limiting step of the complex dissociation phase in the interval [240 s-300 s] was taken to calculate the dissociation rate kd [1/s] (Biacore Evaluation Software 4.0). According to the equation t1/2 diss=ln(2)/(60×kd), the half-life of the immunocomplexes in minutes was calculated.

[7] = target: T3, Biotinylated human soluble TWEAK (amino …); assay: Biacore SPR, biotinylated human soluble TWEAK on SA sensor, antibody as analyte, 37 C
[8] = target: Mouse soluble TWEAK (mouse) (UniProt O54907); assay: competition ELISA: antibody pre-incubated with mouse soluble TWEAK, binding to coated mouse Fn14:Fc
[9] = target: T2, human Flag-tagged soluble TWEAK (amino …); assay: competition ELISA: antibody pre-incubated with human Flag-TWEAK, binding to coated human Fn14:Fc
Protocol: as §1

B1: TW-305 (antibody, V domains shown)
VH: QEQLVESGGGLVQPGGSLTLSCKASGFDFSTYYMSWVRQAPGKGLEWIGTVYVRQGTTYYASWLNGRFTISSDNAQNTVDLKMNSLTAADTATYFCAKGGYNYDDAFVIWGPGTLVTVSF
VL: AIEMTQTPFSVSAAVGGTVTINCQASQNIYSNLAWYQQKPGQPPKLLMYTASYLASGVPSRFKGSGSRTEYTLTISGVQCADAATYYCQTAYYNSRPDTVAFGGGTEVVVK
notes: also called Antibody 305; rabbit antibody 305
- IL-8 Secretion IC50 [1]: 99 ng/mL
- IC50 [2]: 2.5 ng/mL

B2: Antibody 27 (antibody, V domains shown)
VH: QVQLVQSGAEVKKPGSSVKVSCKASGFDFSTYYMSWVRQAPGQGLEWMGTVYVRQGTTYYASWLNGRVTITADESTSTAYMELSSLRSEDTAVYYCARGGYNYDDAFVIWGQGTLVTVSS
VL: DIQMTQSPSSVSASVGDRVTITCQASQNIYSNLAWYQQKPGKAPKLLIYTASYLASGVPSRFSGSGSGTDYTLTISSLQPEDFATYYCQTAYYNSRPDTVAFGGGTKVEIK
notes: also called humanized 305 variant 305-LC2 / 305-HC4
- IL8-Secretion [3]: 197 ng/mL
- t/2 diss [4]: 19 min
- t/2 diss [5]: 19 min
- t/2 diss [6]: 110 min
- t/2 diss [7]: 147 min
- IC50 [8]: 8.2 ng/mL
- IC50 [9]: 2.3 ng/mL

B3: Antibody 28 (antibody, V domains shown)
VH: EVQLLESGGGLVQPGGSLTLSCAASGFDFSTYYMSWVRQAPGKGLEWVSTVYVRQGTTYYASWLNGRFTISRDNSKNTLYLQMNSLRAEDTAVYYCAKGGYNYDDAFVIWGQGTLVTVSS
VL: DIQMTQSPSSVSASVGDRVTITCQASQNIYSNLAWYQQKPGKAPKLLIYTASYLASGVPSRFSGSGSGTDYTLTISSLQPEDFATYYCQTAYYNSRPDTVAFGGGTKVEIK
notes: Humanized variant of antibody 305; also called humanized 305 variant 305-LC2 / 305-HC7
- IL8-Secretion [3]: 165 ng/mL
- t/2 diss [4]: 19 min
- t/2 diss [5]: 17 min
- t/2 diss [6]: 87 min
- t/2 diss [7]: 115 min
- IC50 [8]: 6.5 ng/mL
- IC50 [9]: 1.5 ng/mL

B4: Antibody 34 (antibody, V domains shown)
VH: EVQLLESGGGLVQPGGSLRLSCAASGFDFSTYYMSWVRQAPGKGLEWVSTVYVRQGTTYYASWLNGRFTISRDNSKNTLYLQMNSLRAEDTAVYYCAKGGYNYDDAFVIWGQGTLVTVSS
VL: AIRMTQSPSSFSASTGDRVTITCQASQNIYSNLAWYQQKPGKAPKLLIYTASYLASGVPSRFSGSGSGTDYTLTISCLQSEDFATYYCQTAYYNSRPDTVAFGGGTKVEIK
notes: Humanized variant of antibody 305; also called humanized 305 variant 305-LC4 / 305-HC2
- IL8-Secretion [3]: 24 ng/mL
- t/2 diss [4]: 22 min
- t/2 diss [5]: 20 min
- t/2 diss [6]: 158 min
- t/2 diss [7]: 185 min
- IC50 [8]: 5.9 ng/mL
- IC50 [9]: 1.9 ng/mL

B5: Antibody 33 (antibody, V domains shown)
VH: QVQLVQSGAEVKKPGSSVKVSCKASGFDFSTYYMSWVRQAPGQGLEWMGTVYVRQGTTYYASWLNGRVTITADESTSTAYMELSSLRSEDTAVYYCARGGYNYDDAFVIWGQGTLVTVSS
VL: AIRMTQSPSSFSASTGDRVTITCQASQNIYSNLAWYQQKPGKAPKLLIYTASYLASGVPSRFSGSGSGTDYTLTISCLQSEDFATYYCQTAYYNSRPDTVAFGGGTKVEIK
notes: Humanized variant of antibody 305; also called humanized 305 variant 305-LC4 / 305-HC4
- IL8-Secretion [3]: 26 ng/mL
- t/2 diss [4]: 19 min
- t/2 diss [5]: 15 min
- t/2 diss [6]: 127 min
- t/2 diss [7]: 99 min
- IC50 [8]: 6.7 ng/mL
- IC50 [9]: 1.7 ng/mL

B6: Antibody 31 (antibody, V domains shown)
VH: EVQLLESGGGLVQPGGSLTLSCAASGFDFSTYYMSWVRQAPGKGLEWVSTVYVRQGTTYYASWLNGRFTISRDNSKNTLYLQMNSLRAEDTAVYYCAKGGYNYDDAFVIWGQGTLVTVSS
VL: AIRMTQSPSSFSASTGDRVTITCQASQNIYSNLAWYQQKPGKAPKLLIYTASYLASGVPSRFSGSGSGTDYTLTISCLQSEDFATYYCQTAYYNSRPDTVAFGGGTKVEIK
notes: Humanized variant of antibody 305; also called humanized 305 variant 305-LC4 / 305-HC7
- IL8-Secretion [3]: 94 ng/mL
- t/2 diss [4]: 19 min
- t/2 diss [5]: 19 min
- t/2 diss [6]: 115 min
- t/2 diss [7]: 151 min
- IC50 [8]: 7.1 ng/mL
- IC50 [9]: 1.7 ng/mL

B7: Antibody 29 (antibody, V domains shown)
VH: EVQLLESGGGLVQPGGSLRLSCAASGFDFSTYYMSWVRQAPGKGLEWVSTVYVRQGTTYYASWLNGRFTISRDNSKNTLDLQMNSLRAEDTAVYYCAKGGYNYDDAFVIWGQGTLVTVSS
VL: DIQMTQSPSSVSASVGDRVTITCQASQNIYSNLAWYQQKPGKAPKLLIYTASYLASGVPSRFSGSGSGTDYTLTISSLQPEDFATYYCQTAYYNSRPDTVAFGGGTKVEIK
notes: Humanized variant of antibody 305; also called humanized 305 variant 305-LC2 / 305-HC8
- IL8-Secretion [3]: 78 ng/mL
- t/2 diss [4]: 22 min
- t/2 diss [5]: 21 min
- t/2 diss [6]: 146 min
- t/2 diss [7]: 195 min
- IC50 [8]: 5.7 ng/mL
- IC50 [9]: 1.8 ng/mL

B8: Antibody 32 (antibody, V domains shown)
VH: EVQLLESGGGLVQPGGSLRLSCAASGFDFSTYYMSWVRQAPGKGLEWVSTVYVRQGTTYYASWLNGRFTISRDNSKNTLDLQMNSLRAEDTAVYYCAKGGYNYDDAFVIWGQGTLVTVSS
VL: DIQMTQSPSTLSASVGDRVTITCQASQNIYSNLAWYQQKPGKAPKLLIYTASYLASGVPSRFSGSGSGTEFTLTISSLQPDDFATYYCQTAYYNSRPDTVAFGGGTKVEIK
notes: Humanized variant of antibody 305; also called humanized 305 variant 305-LC6 / 305-HC8
- IL8-Secretion [3]: 134 ng/mL
- t/2 diss [4]: 17 min
- t/2 diss [5]: 20 min
- t/2 diss [6]: 67 min
- t/2 diss [7]: 50 min
- IC50 [8]: 5.4 ng/mL
- IC50 [9]: 1.5 ng/mL

B9: Antibody 30 (antibody, V domains shown)
VH: EVQLLESGGGLVQPGGSLRLSCAASGFDFSTYYMSWVRQAPGKGLEWVSTVYVRQGTTYYASWLNGRFTISRDNSKNTLYLQMNSLTAEDTAVYYCAKGGYNYDDAFVIWGQGTLVTVSS
VL: DIQMTQSPSSVSASVGDRVTITCQASQNIYSNLAWYQQKPGKAPKLLIYTASYLASGVPSRFSGSGSGTDFTLTISSLQPEDFATYYCQTAYYNSRPDTVAFGGGTKVEIK
notes: Humanized variant of antibody 305; also called humanized 305 variant 305-LC1 / 305-HC10
- IL8-Secretion [3]: 207 ng/mL
- t/2 diss [4]: 17 min
- t/2 diss [5]: 15 min
- t/2 diss [6]: 50 min
- t/2 diss [7]: 45 min
- IC50 [8]: 7.6 ng/mL
- IC50 [9]: 2.3 ng/mL

B10: TW-304 (antibody, V domains shown)
VH: QSLEESGGDLVKPGASLTLTCKASGFSFSSTYYMCWVRQAPGKGLEWIGCIYVGSSGAPYYASWAKGRFTISKTSSTTVALQMTSLTPADTATYVCTRSVHFGDLWGPGTLVTVSS
VL: DVVMTQTPSPVSAAVGGTVTIKCQASQSIGNDLSWYQQKPGQRPKLLIYSVSTLASGVPSRFKGSGSGTEYSLTISDVQCADAATYYCQCIDYGNNYVGNTFGGGTEVVVK
notes: also called Antibody 304; rabbit antibody 304
- IL-8 Secretion IC50 [1]: 109 ng/mL
- IC50 [2]: 2.8 ng/mL
